Laboratory results from IntAct's records for PubMed 10545448.

B1: Meiosis-inducing protein 1 (Saccharomyces cerevisiae), P21190 (parent)
chain: MQADMHGKLHAALEDGFFLFPFEQQQQPNIYYDTTTDQEDRPCFSFGSTISPRSWHFEKSDKIASSQLQNLVHTQPIHLINPQILFNEEFLNLENIDSQPISKETKTTKDCTMATGPERGKKSSESTRSSSLSSLFSNDESASTFHSSFNNHDNFQKSNRNGDDIDISDTIKYETNTNAQKDIKIFQENFEFNEFPYTQDFYPYTTNYTYSKPTNIHESINSKNTDSYSQYQDQFPPHTDNIHSFNNRHYSNHKSTNCNYYNNTSNNNNASDNVYEADPFIDEPQVPSYYYPLEIAFDVEKSPPPSLQKLNSKELEFLKKLNSKLSRYAAAYSFSSSNDQDYYDKVRFQEISYKFSKTYS
partner: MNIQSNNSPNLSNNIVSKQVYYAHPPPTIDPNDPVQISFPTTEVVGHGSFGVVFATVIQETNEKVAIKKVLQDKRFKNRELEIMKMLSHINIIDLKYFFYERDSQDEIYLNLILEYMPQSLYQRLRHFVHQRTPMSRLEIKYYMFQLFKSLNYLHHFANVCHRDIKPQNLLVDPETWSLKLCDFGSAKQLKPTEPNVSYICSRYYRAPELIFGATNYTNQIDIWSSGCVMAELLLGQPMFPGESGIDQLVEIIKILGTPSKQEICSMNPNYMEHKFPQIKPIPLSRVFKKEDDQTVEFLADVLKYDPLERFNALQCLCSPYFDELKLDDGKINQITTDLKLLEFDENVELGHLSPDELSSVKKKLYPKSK
B2: Meiosis-inducing protein 1 (Saccharomyces cerevisiae), P21190 (parent)
chain: B1 chain
partner: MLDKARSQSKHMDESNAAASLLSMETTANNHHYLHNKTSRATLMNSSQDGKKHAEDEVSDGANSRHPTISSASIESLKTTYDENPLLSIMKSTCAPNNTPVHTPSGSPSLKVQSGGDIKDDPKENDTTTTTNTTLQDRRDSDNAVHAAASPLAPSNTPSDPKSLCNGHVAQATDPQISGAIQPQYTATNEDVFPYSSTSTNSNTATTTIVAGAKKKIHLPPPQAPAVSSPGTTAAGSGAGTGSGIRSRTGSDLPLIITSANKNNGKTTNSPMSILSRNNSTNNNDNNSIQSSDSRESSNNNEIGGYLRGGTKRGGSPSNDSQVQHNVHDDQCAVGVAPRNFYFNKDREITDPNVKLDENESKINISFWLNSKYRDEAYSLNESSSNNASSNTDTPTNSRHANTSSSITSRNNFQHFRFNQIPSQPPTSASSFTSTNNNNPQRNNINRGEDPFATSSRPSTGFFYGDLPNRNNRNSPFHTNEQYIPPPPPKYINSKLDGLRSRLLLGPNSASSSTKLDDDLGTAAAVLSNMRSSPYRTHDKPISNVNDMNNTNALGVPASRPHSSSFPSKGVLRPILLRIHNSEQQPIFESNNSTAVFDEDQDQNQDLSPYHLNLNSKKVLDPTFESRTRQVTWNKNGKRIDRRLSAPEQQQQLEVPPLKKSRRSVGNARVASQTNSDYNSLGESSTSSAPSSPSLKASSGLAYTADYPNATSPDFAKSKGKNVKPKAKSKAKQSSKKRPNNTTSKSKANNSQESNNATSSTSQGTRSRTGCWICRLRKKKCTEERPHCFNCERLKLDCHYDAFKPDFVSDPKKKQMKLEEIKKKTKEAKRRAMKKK

Variants of: B1
Settings: with rim11_yeast RIM11, P38615

effect of a mutation on the interaction | Variant
with no effect | MQADMHGKLHAALEDGFFLFPFEQQQQPNIYYDTTTDQEDRPCFSFGSTISPRSWHFEKSDKIASSQLQNLVHTQPIHLINPQILFNEEFLNLENIDSQPISKETKTTKDCTMATGPERGKKSSESTRSSSLSSLFSNDESASTFHSSFNNHDNFQKSNRNGDDIDISDTIKYETNTNAQKDIKIFQENFEFNEFPYTQDFYPYTTNYTYSKPTNIHESINSKNTDSYSQYQDQFPPHTDNIHSFNNRHYSNHKSTNCNYYNNTSNNNNASDNVYEADPFIDEPQVPSYYYPLEIAFDVEKSPPPSLQKLNSKELEFLKKLNSKLSRYAAAYSFSSSNDQDAADKVRFQEIAAKFAKAAA [Y342A;Y343A;S352A;Y353A;S356A;T358A;Y359A;S360A]
with no effect | MQADMHGKLHAALEDGFFLFPFEQQQQPNIYYDTTTDQEDRPCFSFGSTISPRSWHFEKSDKIASSQLQNLVHTQPIHLINPQILFNEEFLNLENIDSQPISKETKTTKDCTMATGPERGKKSSESTRSSSLSSLFSNDESASTFHSSFNNHDNFQKSNRNGDDIDISDTIKYETNTNAQKDIKIFQENFEFNEFPYTQDFYPYTTNYTYSKPTNIHESINSKNTDSYSQYQDQFPPHTDNIHSFNNRHYSNHKSTNCNYYNNTSNNNNASDNVYEADPFIDEPQVPSYYYPLEIAFDVEKSPPPSLQKLNSKELEFLKKFNSKLSRYAAAYSFSSSNDQDYYDKVRFQEISYKFSKTYF [L321F;S360F]
with no effect | MQADMHGKLHAALEDGFFLFPFEQQQQPNIYYDTTTDQEDRPCFSFGSTISPRSWHFEKSDKIASSQLQNLVHTQPIHLINPQILFNEEFLNLENIDSQPISKETKTTKDCTMATGPERGKKSSESTRSSSLSSLFSNDESASTFHSSFNNHDNFQKSNRNGDDIDISDTIKYETNTNAQKDIKIFQENFEFNEFPYTQDFYPYTTNYTYSKPTNIHESINSKNTDSYSQYQDQFPPHTDNIHSFNNRHYSNHKSTNCNYYNNTSNNNNASDNVYEADPFIDEPQVPSYYYPLEIAFDVEKSPPPSLQKLNSKELEFLKKLNSKLSRYAAAYSFSSSNDQDYYDKVKFQEISYKFSKTYF [R347K;S360F]

Variants of: B1
Settings: with rim11_yeast RIM11, P38615
Remark: another data set of the same source

effect of a mutation on the interaction | Variant
decreasing interaction strength | MQADMHGKLHAALEDGFFLFPFEQQQQPNIYYDTTTDQEDRPCFSFGSTISPRSWHFEKSDKIASSQLQNLVHTQPIHLINPQILFNEEFLNLENIDSQPISKETKTTKDCTMATGPERGKKSSESTRSSSLSSLFSNDESASTFHSSFNNHDNFQKSNRNGDDIDISDTIKYETNTNAQKDIKIFQENFEFNEFPYTQDFYPYTTNYTYSKPTNIHESINSKNTDSYSQYQDQFPPHTDNIHSFNNRHYSNHKSTNCNYYNNTSNNNNASDNVYEADPFIDEPQVPSYYYPLEIAFDVEKSPPPSLQKLNSKELEFLKKFNSKLSRYAAAYSFSSSNDQDYYDKVRFQEISYKFSKTYF [L321F;S360F]
disrupting interaction strength | MQADMHGKLHAALEDGFFLFPFEQQQQPNIYYDTTTDQEDRPCFSFGSTISPRSWHFEKSDKIASSQLQNLVHTQPIHLINPQILFNEEFLNLENIDSQPISKETKTTKDCTMATGPERGKKSSESTRSSSLSSLFSNDESASTFHSSFNNHDNFQKSNRNGDDIDISDTIKYETNTNAQKDIKIFQENFEFNEFPYTQDFYPYTTNYTYSKPTNIHESINSKNTDSYSQYQDQFPPHTDNIHSFNNRHYSNHKSTNCNYYNNTSNNNNASDNVYEADPFIDEPQVPSYYYPLEIAFDVEKSPPPSLQKLNSKELEFLKKFNSKLSRYAAAYSFSSSNDQDYYDKVRFQEISYKFSKTYS [L321F]
decreasing interaction strength | MQADMHGKLHAALEDGFFLFPFEQQQQPNIYYDTTTDQEDRPCFSFGSTISPRSWHFEKSDKIASSQLQNLVHTQPIHLINPQILFNEEFLNLENIDSQPISKETKTTKDCTMATGPERGKKSSESTRSSSLSSLFSNDESASTFHSSFNNHDNFQKSNRNGDDIDISDTIKYETNTNAQKDIKIFQENFEFNEFPYTQDFYPYTTNYTYSKPTNIHESINSKNTDSYSQYQDQFPPHTDNIHSFNNRHYSNHKSTNCNYYNNTSNNNNASDNVYEADPFIDEPQVPSYYYPLEIAFDVEKSPPPSLQKLNSKELEFLKKLNSKLSRYAAAYSFSSSNDQDYYDKVKFQEISYKFSKTYF [R347K;S360F]
disrupting interaction strength | MQADMHGKLHAALEDGFFLFPFEQQQQPNIYYDTTTDQEDRPCFSFGSTISPRSWHFEKSDKIASSQLQNLVHTQPIHLINPQILFNEEFLNLENIDSQPISKETKTTKDCTMATGPERGKKSSESTRSSSLSSLFSNDESASTFHSSFNNHDNFQKSNRNGDDIDISDTIKYETNTNAQKDIKIFQENFEFNEFPYTQDFYPYTTNYTYSKPTNIHESINSKNTDSYSQYQDQFPPHTDNIHSFNNRHYSNHKSTNCNYYNNTSNNNNASDNVYEADPFIDEPQVPSYYYPLEIAFDVEKSPPPSLQKLNSKELEFLKKLNSKLSRYAAAYSFSSSNDQDYYDKVKFQEISYKFSKTYS [R347K]

Variants of: B2
Settings: with ume6_yeast UME6, P39001

effect of a mutation on the interaction | Variant
decreasing interaction strength | MQADMHGKLHAALEDGFFLFPFEQQQQPNIYYDTTTDQEDRPCFSFGSTISPRSWHFEKSDKIASSQLQNLVHTQPIHLINPQILFNEEFLNLENIDSQPISKETKTTKDCTMATGPERGKKSSESTRSSSLSSLFSNDESASTFHSSFNNHDNFQKSNRNGDDIDISDTIKYETNTNAQKDIKIFQENFEFNEFPYTQDFYPYTTNYTYSKPTNIHESINSKNTDSYSQYQDQFPPHTDNIHSFNNRHYSNHKSTNCNYYNNTSNNNNASDNVYEADPFIDEPQVPSYYYPLEIAFDVEKSPPPSLQKLNSKELEFLKKLNSKLSRYAAAYSFSSSNDQDYYDKVRFQEIAYKFAKTYA [S352A;S356A;S360A]
disrupting interaction strength | MQADMHGKLHAALEDGFFLFPFEQQQQPNIYYDTTTDQEDRPCFSFGSTISPRSWHFEKSDKIASSQLQNLVHTQPIHLINPQILFNEEFLNLENIDSQPISKETKTTKDCTMATGPERGKKSSESTRSSSLSSLFSNDESASTFHSSFNNHDNFQKSNRNGDDIDISDTIKYETNTNAQKDIKIFQENFEFNEFPYTQDFYPYTTNYTYSKPTNIHESINSKNTDSYSQYQDQFPPHTDNIHSFNNRHYSNHKSTNCNYYNNTSNNNNASDNVYEADPFIDEPQVPSYYYPLEIAFDVEKSPPPSLQKLNSKELEFLKKFNSKLSRYAAAYSFSSSNDQDYYDKVRFQEISYKFSKTYS [L321F]
disrupting interaction strength | MQADMHGKLHAALEDGFFLFPFEQQQQPNIYYDTTTDQEDRPCFSFGSTISPRSWHFEKSDKIASSQLQNLVHTQPIHLINPQILFNEEFLNLENIDSQPISKETKTTKDCTMATGPERGKKSSESTRSSSLSSLFSNDESASTFHSSFNNHDNFQKSNRNGDDIDISDTIKYETNTNAQKDIKIFQENFEFNEFPYTQDFYPYTTNYTYSKPTNIHESINSKNTDSYSQYQDQFPPHTDNIHSFNNRHYSNHKSTNCNYYNNTSNNNNASDNVYEADPFIDEPQVPSYYYPLEIAFDVEKSPPPSLQKLNSKELEFLKKLNSKLSRYAAAYSFSSSNDQDAADKVRFQEIAAKFAKAAA [Y342A;Y343A;S352A;Y353A;S356A;T358A;Y359A;S360A]
disrupting interaction strength | MQADMHGKLHAALEDGFFLFPFEQQQQPNIYYDTTTDQEDRPCFSFGSTISPRSWHFEKSDKIASSQLQNLVHTQPIHLINPQILFNEEFLNLENIDSQPISKETKTTKDCTMATGPERGKKSSESTRSSSLSSLFSNDESASTFHSSFNNHDNFQKSNRNGDDIDISDTIKYETNTNAQKDIKIFQENFEFNEFPYTQDFYPYTTNYTYSKPTNIHESINSKNTDSYSQYQDQFPPHTDNIHSFNNRHYSNHKSTNCNYYNNTSNNNNASDNVYEADPFIDEPQVPSYYYPLEIAFDVEKSPPPSLQKLNSKELEFLKKLNSKLSRYAAAYSFSSSNDQDYYDKVKFQEISYKFSKTYF [R347K;S360F]
disrupting interaction strength | MQADMHGKLHAALEDGFFLFPFEQQQQPNIYYDTTTDQEDRPCFSFGSTISPRSWHFEKSDKIASSQLQNLVHTQPIHLINPQILFNEEFLNLENIDSQPISKETKTTKDCTMATGPERGKKSSESTRSSSLSSLFSNDESASTFHSSFNNHDNFQKSNRNGDDIDISDTIKYETNTNAQKDIKIFQENFEFNEFPYTQDFYPYTTNYTYSKPTNIHESINSKNTDSYSQYQDQFPPHTDNIHSFNNRHYSNHKSTNCNYYNNTSNNNNASDNVYEADPFIDEPQVPSYYYPLEIAFDVEKSPPPSLQKLNSKELEFLKKLNSKLSRYAAAYSFSSSNDQDYYDKVKFQEISYKFSKTYS [R347K]
decreasing interaction strength | MQADMHGKLHAALEDGFFLFPFEQQQQPNIYYDTTTDQEDRPCFSFGSTISPRSWHFEKSDKIASSQLQNLVHTQPIHLINPQILFNEEFLNLENIDSQPISKETKTTKDCTMATGPERGKKSSESTRSSSLSSLFSNDESASTFHSSFNNHDNFQKSNRNGDDIDISDTIKYETNTNAQKDIKIFQENFEFNEFPYTQDFYPYTTNYTYSKPTNIHESINSKNTDSYSQYQDQFPPHTDNIHSFNNRHYSNHKSTNCNYYNNTSNNNNASDNVYEADPFIDEPQVPSYYYPLEIAFDVEKSPPPSLQKLNSKELEFLKKFNSKLSRYAAAYSFSSSNDQDYYDKVRFQEISYKFSKTYF [L321F;S360F]
